Measured values published in the Immune Epitope Database (IEDB).

How the values were obtained:
HLA-C*14:02 = experiment: IEDB peptide-MHC binding, purified MHC/direct/fluorescence; filed as Kd, often an IC50 or EC50 that approximates it; ≥ and ≤ were set here for values at or beyond the usual limits of such assays
HLA-A*26:01 [1] = experiment: IEDB peptide-MHC binding, purified MHC/competitive/fluorescence; filed as Kd, often an IC50 or EC50 that approximates it; ≥ and ≤ were set here for values at or beyond the usual limits of such assays; settings: source organism: Escherichia coli O139:H28 str. E24377A
HLA-B*15:03 = experiment: IEDB peptide-MHC binding, purified MHC/competitive/radioactivity; filed as Kd, often an IC50 or EC50 that approximates it; ≥ and ≤ were set here for values at or beyond the usual limits of such assays
HLA-A*11:01 [2] = experiment: IEDB peptide-MHC binding, purified MHC/competitive/fluorescence; ≥ and ≤ were set here for values at or beyond the usual limits of such assays
HLA-A*02:01 [3] = experiment: as above
HLA-A*03:01 [4] = experiment: as above
HLA-A*11:01 [5] = experiment: IEDB peptide-MHC binding, purified MHC/direct/fluorescence; filed as Kd, often an IC50 or EC50 that approximates it; ≥ and ≤ were set here for values at or beyond the usual limits of such assays; settings: source organism: Vibrio vulnificus
HLA-B*15:01 [6] = experiment: as above; settings: source organism: Vibrio vulnificus
HLA-B*44:02 = experiment: as above; settings: source organism: Vibrio vulnificus
HLA-A*31:01 = experiment: as above; settings: source organism: Vibrio vulnificus
HLA-B*27:05 = experiment: as above; settings: source organism: Vibrio vulnificus
HLA-A*26:01 [7] = experiment: as above; settings: source organism: Vibrio vulnificus
HLA-B*07:02 = experiment: as above; settings: source organism: Vibrio vulnificus
HLA-A*02:01 [8] = experiment: as above; settings: source organism: Vibrio vulnificus
HLA-B*40:01 = experiment: as above; settings: source organism: Vibrio vulnificus
HLA-B*35:01 = experiment: as above; settings: source organism: Vibrio vulnificus
HLA-B*08:01 [9] = experiment: as above; settings: source organism: Vibrio vulnificus
HLA-A*01:01 = experiment: as above; settings: source organism: Vibrio vulnificus
HLA-A*69:01 = experiment: as above; settings: source organism: Vibrio vulnificus
HLA-A*03:01 [10] = experiment: as above; settings: source organism: Vibrio vulnificus
HLA-B*58:01 = experiment: as above; settings: source organism: Vibrio vulnificus
HLA-A*02:06 = experiment: IEDB peptide-MHC binding, purified MHC/competitive/radioactivity; filed as Kd, often an IC50 or EC50 that approximates it; ≥ and ≤ were set here for values at or beyond the usual limits of such assays
HLA-A*02:01 [11] = experiment: as above
HLA-A*02:03 = experiment: as above
HLA-A*02:17 = experiment: as above
HLA-A*26:01 [12] = experiment: as above; settings: source organism: Dengue virus 3 Martinique/1243/1999
HLA-B*51:01 = experiment: as above; settings: source organism: Dengue virus 3 Martinique/1243/1999
HLA-A*68:02 = experiment: as above; settings: source organism: Dengue virus 3 Martinique/1243/1999
HLA-A*24:02 = experiment: IEDB peptide-MHC binding, purified MHC/competitive/fluorescence; ≥ and ≤ were set here for values at or beyond the usual limits of such assays; settings: source organism: Zaire ebolavirus
HLA-B*15:01 [13] = experiment: IEDB peptide-MHC binding, purified MHC/competitive/radioactivity; filed as Kd, often an IC50 or EC50 that approximates it; ≥ and ≤ were set here for values at or beyond the usual limits of such assays; settings: source organism: Vaccinia virus WR
HLA-A*30:01 = experiment: as above; settings: source organism: Vaccinia virus WR
HLA-A*32:01 = experiment: as above; settings: source organism: Vaccinia virus WR
HLA-B*08:01 [14] = experiment: as above; settings: source organism: Vaccinia virus WR
[15] = source organism: Vaccinia virus WR
[16] = source organism: Zaire ebolavirus
[17] = source organism: Dengue virus 1 Brazil/97-11/1997
[18] = source organism: Dengue virus 1 Singapore/S275/1990
[19] = source organism: Dengue virus 3 Martinique/1243/1999
[20] = source organism: Dengue virus 3 China/80-2/1980
[21] = source organism: Vaccinia virus

ACPDNLLRL
Kd (HLA-C*14:02; source organism: Escherichia coli O139:H28 str. E24377A): 1100 nM | Kd (HLA-A*26:01 [1]): ≥ 20000 nM

AKSQSDTVF
Kd (HLA-B*15:03; [15]): 0.16 nM

ATAHGSTLA
IC50 (HLA-A*11:01 [2]; [16]): 43100 nM | IC50 (HLA-A*02:01 [3]; [16]): 54300 nM

AVLYYHMMK
IC50 (HLA-A*11:01 [2]; [16]): 288 nM | IC50 (HLA-A*02:01 [3]; [16]): ≥ 311000 nM | IC50 (HLA-A*03:01 [4]; [16]): 1970 nM

DFPIFNQRY
Kd (HLA-A*11:01 [5]): ≥ 20000 nM | Kd (HLA-B*15:01 [6]): ≥ 20000 nM | Kd (HLA-B*44:02): ≥ 20000 nM | Kd (HLA-A*31:01): ≥ 20000 nM | Kd (HLA-B*27:05): ≥ 20000 nM | Kd (HLA-A*26:01 [7]): 3830 nM | Kd (HLA-B*07:02): ≥ 20000 nM | Kd (HLA-A*02:01 [8]): ≥ 20000 nM | Kd (HLA-B*40:01): ≥ 20000 nM | Kd (HLA-B*35:01): 118 nM | Kd (HLA-B*08:01 [9]): ≥ 20000 nM | Kd (HLA-A*01:01): ≥ 20000 nM | Kd (HLA-A*69:01): ≥ 20000 nM | Kd (HLA-A*03:01 [10]): ≥ 20000 nM | Kd (HLA-B*58:01): ≥ 20000 nM

FMTATPPGSV
Kd (HLA-A*02:06; [17]): 671 nM | Kd (HLA-A*02:01 [11]; [18]): 72.8 nM | Kd (HLA-A*02:03; [17]): 1.67 nM | Kd (HLA-A*02:17; [18]): 3100 nM

FMYFCEQKL
Kd (HLA-B*15:03; [15]): 35.7 nM

FSMLGIWFF
Kd (HLA-B*15:03; source organism: Vaccinia virus Copenhagen): 28.3 nM

FTMGVLCLAI
Kd (HLA-A*02:06; [19]): 5.39 nM | Kd (HLA-A*26:01 [12]): 1650 nM | Kd (HLA-A*02:03; [19]): 9.25 nM | Kd (HLA-B*51:01): 8620 nM | Kd (HLA-A*68:02): 11.1 nM | Kd (HLA-A*02:17; [20]): 132 nM

GTSNRTPTV
IC50 (HLA-A*11:01 [2]; [16]): ≥ 128000 nM | IC50 (HLA-A*02:01 [3]; [16]): 1300 nM | IC50 (HLA-A*03:01 [4]; [16]): 57200 nM

IEVSSDISF
Kd (HLA-B*15:03; [15]): 9.74 nM

IVLEFFMMV
Kd (HLA-A*02:06; [19]): 31.7 nM | Kd (HLA-A*68:02): 558 nM | Kd (HLA-A*02:17; [20]): 131 nM

IYIEGLMHN
IC50 (HLA-A*11:01 [2]; [16]): 36100 nM | IC50 (HLA-A*24:02): 2630 nM | IC50 (HLA-A*03:01 [4]; [16]): ≥ 211000 nM

KIGDFGLATVK
IC50 (HLA-A*11:01 [2]; source organism: Homo sapiens): 32 nM | IC50 (HLA-A*03:01 [4]; source organism: Homo sapiens): 415 nM

KIVMTPSPF
Kd (HLA-B*15:03; [15]): 211 nM

KMLMTGTLAV
Kd (HLA-A*02:06; [17]): 47.4 nM | Kd (HLA-A*02:01 [11]; [18]): 6.46 nM | Kd (HLA-A*02:03; [17]): 10 nM | Kd (HLA-A*02:17; [18]): 444 nM

KMNAKAATL
Kd (HLA-C*14:02; source organism: Mycobacterium tuberculosis variant bovis BCG str. Pasteur 1173P2): 146 nM

LKSPKRCSF
Kd (HLA-B*15:03; [15]): 2.74 nM

LLLQKYPPP
IC50 (HLA-A*02:01 [3]; [21]): 34100 nM | IC50 (HLA-A*03:01 [4]; [21]): ≥ 416000 nM

LLTGGAMLFL
Kd (HLA-A*02:01 [11]; [20]): 47.4 nM | Kd (HLA-A*02:17; [20]): 347 nM

LMFKHLLHP
Kd (HLA-B*15:01 [13]): 103 nM | Kd (HLA-A*30:01): 504 nM | Kd (HLA-B*15:03; [15]): 25.9 nM | Kd (HLA-A*32:01): 11300 nM | Kd (HLA-B*08:01 [14]): 1.04 nM

LMMTLPSIF
Kd (HLA-B*15:03; [15]): 0.152 nM
